From article PMC314469, “Protein Interaction Networks by Proteome Peptide Scanning” (PLoS Biology, 2004)

T1: Boi1 SH3 (BOI1_YEAST), P38041
T1 chain: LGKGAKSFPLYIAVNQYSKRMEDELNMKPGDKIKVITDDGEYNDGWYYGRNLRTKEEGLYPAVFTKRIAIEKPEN

T2: Boi2 SH3 (BOI2_YEAST), P39969
T2 chain: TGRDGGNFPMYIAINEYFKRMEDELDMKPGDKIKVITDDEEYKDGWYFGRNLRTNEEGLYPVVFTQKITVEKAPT

T3: Rvs167 SH3 (RV167_YEAST), P39743
T3 chain: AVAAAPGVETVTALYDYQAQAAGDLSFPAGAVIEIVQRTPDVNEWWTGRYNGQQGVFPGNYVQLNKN

T4: Yfr024 SH3 (LSB3_YEAST), P43603
T4 chain: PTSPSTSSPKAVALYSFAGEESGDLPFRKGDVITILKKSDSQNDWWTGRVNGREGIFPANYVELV

T5: Yhr016c SH3 (YSC84_YEAST), P32793
T5 chain: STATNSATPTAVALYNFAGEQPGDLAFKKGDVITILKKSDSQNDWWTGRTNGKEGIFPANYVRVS


Molecular target: T1, Boi1 SH3 (BOI1_YEAST), P38041
Assay: SPOT array

Binder	normalised SPOT signal, Boehringer light units (BLU); mean over the file's lines of this peptide
AVLPIEPMKIKGTT [YNL140C 149-162]	98.3
SIIPPLPDKKVFQY [YJL036W 96-109]	40.2
APLPPQPRKHDKTP [YBL105C 587-600]	217
ATRPSSPMRHKSIS [YAR019C 585-598]	168
APTPPAPSRSEKLH [YBR108W 727-740]	152
ASKPSVPPRNYFSK [YIL108W 577-590]	1130
SILPSTPTRPLSQS [YPL202C 314-327]	44.6
SILPAFPSKSSNEQ [YDR403W 216-229]	131
SDFPYDPFKVMRQN [YKR061W 225-238]	41.4
ATTPAIPTKSDEAE [YGR162W 364-377]	70.8
SGFPLLPSKRGVTA [YBL095W 165-178]	100
ARDPILPYRLVKDR [YHL040C 345-358]	322
ASMPRVPLKIVLKD [YIL078W 68-81]	101
AQRPRGPQRGKDIK [YNL064C 104-117]	119
ASYPLTPRRYVPED [YLR244C 90-103]	2830
SLGPLDPLKEISDL [YLR330W 177-190]	103
ATVPSAPYRKQIIS [YAR002W 11-24]	30.5
AVDPENPKKLASKF [YCR023C 384-397]	74.5
SDFPYDPFRVMRLK [YJL139C 225-238]	330

Molecular target: T2, Boi2 SH3 (BOI2_YEAST), P39969
Assay: SPOT array

Binder	normalised SPOT signal, Boehringer light units (BLU); mean over the file's lines of this peptide
AVLPIEPMKIKGTT [YNL140C 149-162]	37
SIIPPLPDKKVFQY [YJL036W 96-109]	49
APLPPQPRKHDKTP [YBL105C 587-600]	57.8
ATRPSSPMRHKSIS [YAR019C 585-598]	302
APTPPAPSRSEKLH [YBR108W 727-740]	16.8
ASKPSVPPRNYFSK [YIL108W 577-590]	44.5
SILPSTPTRPLSQS [YPL202C 314-327]	19.1
SILPAFPSKSSNEQ [YDR403W 216-229]	25.1
SDFPYDPFKVMRQN [YKR061W 225-238]	40.1
ATTPAIPTKSDEAE [YGR162W 364-377]	42.2
SGFPLLPSKRGVTA [YBL095W 165-178]	22
ARDPILPYRLVKDR [YHL040C 345-358]	46.6
ASMPRVPLKIVLKD [YIL078W 68-81]	282
AQRPRGPQRGKDIK [YNL064C 104-117]	73.2
ASYPLTPRRYVPED [YLR244C 90-103]	23400
SLGPLDPLKEISDL [YLR330W 177-190]	42.4
ATVPSAPYRKQIIS [YAR002W 11-24]	53.7
AVDPENPKKLASKF [YCR023C 384-397]	53.1
SDFPYDPFRVMRLK [YJL139C 225-238]	33.6

Molecular target: T3, Rvs167 SH3 (RV167_YEAST), P39743
Assay: SPOT array

Binder	normalised SPOT signal, Boehringer light units (BLU); mean over the file's lines of this peptide
AVLPIEPMKIKGTT [YNL140C 149-162]	39
SIIPPLPDKKVFQY [YJL036W 96-109]	22.3
APLPPQPRKHDKTP [YBL105C 587-600]	52.6
ATRPSSPMRHKSIS [YAR019C 585-598]	1180
APTPPAPSRSEKLH [YBR108W 727-740]	49.2
ASKPSVPPRNYFSK [YIL108W 577-590]	3860
SILPSTPTRPLSQS [YPL202C 314-327]	196
SILPAFPSKSSNEQ [YDR403W 216-229]	68.1
SDFPYDPFKVMRQN [YKR061W 225-238]	11.8
ATTPAIPTKSDEAE [YGR162W 364-377]	86.1
SGFPLLPSKRGVTA [YBL095W 165-178]	354
ARDPILPYRLVKDR [YHL040C 345-358]	437
ASMPRVPLKIVLKD [YIL078W 68-81]	581
AQRPRGPQRGKDIK [YNL064C 104-117]	78.6
ASYPLTPRRYVPED [YLR244C 90-103]	1380
SLGPLDPLKEISDL [YLR330W 177-190]	8.3
ATVPSAPYRKQIIS [YAR002W 11-24]	145
AVDPENPKKLASKF [YCR023C 384-397]	5.3
SDFPYDPFRVMRLK [YJL139C 225-238]	42

Molecular target: T4, Yfr024 SH3 (LSB3_YEAST), P43603
Assay: SPOT array

Binder	normalised SPOT signal, Boehringer light units (BLU); mean over the file's lines of this peptide
AVLPIEPMKIKGTT [YNL140C 149-162]	605
SIIPPLPDKKVFQY [YJL036W 96-109]	6960
APLPPQPRKHDKTP [YBL105C 587-600]	1150
ATRPSSPMRHKSIS [YAR019C 585-598]	6110
APTPPAPSRSEKLH [YBR108W 727-740]	4690
ASKPSVPPRNYFSK [YIL108W 577-590]	20100
SILPSTPTRPLSQS [YPL202C 314-327]	20300
SILPAFPSKSSNEQ [YDR403W 216-229]	441
SDFPYDPFKVMRQN [YKR061W 225-238]	33.2
ATTPAIPTKSDEAE [YGR162W 364-377]	166
SGFPLLPSKRGVTA [YBL095W 165-178]	4190
ARDPILPYRLVKDR [YHL040C 345-358]	16800
ASMPRVPLKIVLKD [YIL078W 68-81]	6880
AQRPRGPQRGKDIK [YNL064C 104-117]	576
ASYPLTPRRYVPED [YLR244C 90-103]	6950
SLGPLDPLKEISDL [YLR330W 177-190]	13.6
ATVPSAPYRKQIIS [YAR002W 11-24]	1890
AVDPENPKKLASKF [YCR023C 384-397]	0
SDFPYDPFRVMRLK [YJL139C 225-238]	231

Molecular target: T5, Yhr016c SH3 (YSC84_YEAST), P32793
Assay: SPOT array

Binder	normalised SPOT signal, Boehringer light units (BLU); mean over the file's lines of this peptide
AVLPIEPMKIKGTT [YNL140C 149-162]	191
SIIPPLPDKKVFQY [YJL036W 96-109]	174
APLPPQPRKHDKTP [YBL105C 587-600]	372
ATRPSSPMRHKSIS [YAR019C 585-598]	1730
APTPPAPSRSEKLH [YBR108W 727-740]	448
ASKPSVPPRNYFSK [YIL108W 577-590]	9380
SILPSTPTRPLSQS [YPL202C 314-327]	20300
SILPAFPSKSSNEQ [YDR403W 216-229]	108
SDFPYDPFKVMRQN [YKR061W 225-238]	119
ATTPAIPTKSDEAE [YGR162W 364-377]	0
SGFPLLPSKRGVTA [YBL095W 165-178]	314
ARDPILPYRLVKDR [YHL040C 345-358]	4220
ASMPRVPLKIVLKD [YIL078W 68-81]	690
AQRPRGPQRGKDIK [YNL064C 104-117]	112
ASYPLTPRRYVPED [YLR244C 90-103]	4120
SLGPLDPLKEISDL [YLR330W 177-190]	206
ATVPSAPYRKQIIS [YAR002W 11-24]	718
AVDPENPKKLASKF [YCR023C 384-397]	42.7
SDFPYDPFRVMRLK [YJL139C 225-238]	245
